Here are results for one substance from publication PMC6456745.

Assay [1] addresses AccS′ (soluble C-terminal autokinase module of the AccS sensor kinase), His6-tagged (Azoarcus sp. CIB). Put plainly: AUC; sedimentation velocity, 20°C, 48,000 rpm, AccS′ 1 mg/ml, in the absence of DTT or with 0.1 mM DTT; dimer to monomers.
Assay [2] has the same target. Put plainly: AUC; sedimentation velocity, 20°C, 48,000 rpm, AccS′ 1 mg/ml, with 0.1 mM DTT and 250 µM ubiquinone Q0; dimer to monomers.

Regarding “AccS′ (soluble C-terminal autokinase module of the AccS sensor kinase), His6-tagged (domain or fragment)”, in assay [1], the percent of the protein as dimer (in the absence of DTT) came out at 62%; the percent of the protein as dimer (with DTT) is 88%; the stoichiometry N (as a rule, a count of units in the complex or per binding partner) was 2. For the same substance, in assay [2], the percent of the protein as dimer (with DTT and Q0) turned out to be 37%; the stoichiometry N worked out at 2.
